Data on three sequences can be found in the supplement of paper PMC6379048.

As usually defined, the Kd is the free concentration of one partner at which half of the binding sites on the other are occupied at equilibrium, for simple one-to-one binding. Low values mean tighter binding, high ones weaker binding.

Holding throughout (assay): Kd (EC50 corrected by depletion factor)
The target of series [1] is TUBB2A (UniProt Q13885). Summed up: (§1)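 HEK293-FT lysate (2.5 mg protein/well) was treated with free RNA oligos (0 nM to 30 μM) for 1 h at 4°C, then with the same oligos on NHS-Sepharose beads for 30 min at 4°C. Bound proteins were quantified by label-free LC-MS/MS relative to the control. EC50 came from a four-parameter log-logistic fit, and Kd is EC50 times a protein-dependent depletion factor.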
Sequence of TUBB2A (Q13885 whole entry): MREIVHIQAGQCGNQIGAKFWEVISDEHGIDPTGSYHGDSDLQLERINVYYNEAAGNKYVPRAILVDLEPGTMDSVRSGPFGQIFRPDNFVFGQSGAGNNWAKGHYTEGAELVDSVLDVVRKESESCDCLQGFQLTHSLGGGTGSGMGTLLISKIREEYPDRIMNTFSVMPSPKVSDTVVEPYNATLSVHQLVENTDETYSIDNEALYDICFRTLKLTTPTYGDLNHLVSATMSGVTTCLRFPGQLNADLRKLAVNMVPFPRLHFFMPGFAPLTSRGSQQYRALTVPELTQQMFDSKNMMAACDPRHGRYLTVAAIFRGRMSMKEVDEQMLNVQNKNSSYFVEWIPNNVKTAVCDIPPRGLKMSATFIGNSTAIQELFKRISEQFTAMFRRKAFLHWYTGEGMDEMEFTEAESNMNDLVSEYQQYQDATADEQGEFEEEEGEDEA

The target of series [2] is T1, ZGPAT (UniProt Q8N5A5).
T1 sequence: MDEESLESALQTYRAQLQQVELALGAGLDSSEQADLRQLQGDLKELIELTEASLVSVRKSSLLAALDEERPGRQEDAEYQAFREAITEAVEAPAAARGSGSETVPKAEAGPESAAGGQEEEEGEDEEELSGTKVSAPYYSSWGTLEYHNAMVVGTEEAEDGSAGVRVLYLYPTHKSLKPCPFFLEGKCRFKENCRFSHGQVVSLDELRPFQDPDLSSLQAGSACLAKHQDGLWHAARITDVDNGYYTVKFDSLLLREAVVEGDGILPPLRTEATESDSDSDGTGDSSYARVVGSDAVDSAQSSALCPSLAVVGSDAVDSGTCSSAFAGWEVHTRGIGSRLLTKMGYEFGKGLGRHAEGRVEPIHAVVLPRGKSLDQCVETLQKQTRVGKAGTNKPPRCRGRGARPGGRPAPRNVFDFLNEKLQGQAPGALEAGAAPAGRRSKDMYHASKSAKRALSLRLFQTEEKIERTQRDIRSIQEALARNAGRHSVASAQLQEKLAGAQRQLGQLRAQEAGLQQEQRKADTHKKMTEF
Summed up:
as §1

The target in series [3] is CSNK2A1 (UniProt P68400). The method, boiled down:
as §1

The target of series [4] is T2, UPF1 (UniProt Q92900).
T2 sequence: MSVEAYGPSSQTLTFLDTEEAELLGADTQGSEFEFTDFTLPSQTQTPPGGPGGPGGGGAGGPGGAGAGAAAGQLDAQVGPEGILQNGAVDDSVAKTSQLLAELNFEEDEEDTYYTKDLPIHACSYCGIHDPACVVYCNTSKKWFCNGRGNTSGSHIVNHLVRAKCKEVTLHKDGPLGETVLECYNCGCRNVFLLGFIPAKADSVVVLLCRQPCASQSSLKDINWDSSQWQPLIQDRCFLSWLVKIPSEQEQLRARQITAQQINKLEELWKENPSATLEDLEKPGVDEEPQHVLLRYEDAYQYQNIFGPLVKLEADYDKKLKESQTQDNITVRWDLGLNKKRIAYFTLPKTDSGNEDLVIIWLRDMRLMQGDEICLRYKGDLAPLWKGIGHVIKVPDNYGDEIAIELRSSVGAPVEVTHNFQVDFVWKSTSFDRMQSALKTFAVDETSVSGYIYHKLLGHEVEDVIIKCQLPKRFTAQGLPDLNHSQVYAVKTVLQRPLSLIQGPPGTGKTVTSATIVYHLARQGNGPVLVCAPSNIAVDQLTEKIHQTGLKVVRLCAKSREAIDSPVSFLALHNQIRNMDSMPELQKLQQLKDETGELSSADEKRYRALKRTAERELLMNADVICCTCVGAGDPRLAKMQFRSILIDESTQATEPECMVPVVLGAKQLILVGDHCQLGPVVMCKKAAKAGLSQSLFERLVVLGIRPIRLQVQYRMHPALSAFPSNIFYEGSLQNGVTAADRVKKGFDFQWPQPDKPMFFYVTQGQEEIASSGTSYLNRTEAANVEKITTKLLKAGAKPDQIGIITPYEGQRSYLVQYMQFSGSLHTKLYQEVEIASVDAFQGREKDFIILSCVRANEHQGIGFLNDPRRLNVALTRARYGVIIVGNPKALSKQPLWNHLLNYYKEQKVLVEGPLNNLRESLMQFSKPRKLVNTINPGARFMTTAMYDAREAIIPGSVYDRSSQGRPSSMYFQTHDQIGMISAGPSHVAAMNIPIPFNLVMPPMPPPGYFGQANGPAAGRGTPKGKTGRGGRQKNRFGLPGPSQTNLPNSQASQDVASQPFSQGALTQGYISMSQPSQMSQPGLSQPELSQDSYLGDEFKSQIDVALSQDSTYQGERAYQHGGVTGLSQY
The method, boiled down: as §1

The target in series [5] is MRPL37 (UniProt Q9BZE1). The method, boiled down:
as §1

Series [6] deals with MRPL1 (UniProt Q9BYD6). The method, boiled down:
as §1

Series [7] deals with RPS18 (UniProt P62269). Summed up: as §1
The target of series [8] is ATIC (UniProt P31939). Summed up:
as §1

Sequence of ATIC (P31939 whole entry, looked up): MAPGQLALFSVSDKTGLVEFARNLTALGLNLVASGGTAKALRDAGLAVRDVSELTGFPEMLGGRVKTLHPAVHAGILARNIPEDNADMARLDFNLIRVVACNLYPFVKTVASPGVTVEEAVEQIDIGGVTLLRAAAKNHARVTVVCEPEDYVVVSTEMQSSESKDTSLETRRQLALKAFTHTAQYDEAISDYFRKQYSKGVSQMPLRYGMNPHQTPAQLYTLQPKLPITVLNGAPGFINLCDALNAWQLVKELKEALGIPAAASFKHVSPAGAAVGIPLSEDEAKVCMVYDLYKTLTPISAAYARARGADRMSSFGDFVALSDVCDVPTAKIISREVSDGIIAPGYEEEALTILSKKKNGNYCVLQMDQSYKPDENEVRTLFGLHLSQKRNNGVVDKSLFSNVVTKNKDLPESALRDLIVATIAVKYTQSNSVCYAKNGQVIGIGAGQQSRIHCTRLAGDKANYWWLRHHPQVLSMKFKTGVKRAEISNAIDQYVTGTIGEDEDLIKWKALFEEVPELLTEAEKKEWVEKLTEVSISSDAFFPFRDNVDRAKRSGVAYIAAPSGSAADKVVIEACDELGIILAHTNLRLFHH
Sequence of CSNK2A1 (P68400 whole entry, looked up): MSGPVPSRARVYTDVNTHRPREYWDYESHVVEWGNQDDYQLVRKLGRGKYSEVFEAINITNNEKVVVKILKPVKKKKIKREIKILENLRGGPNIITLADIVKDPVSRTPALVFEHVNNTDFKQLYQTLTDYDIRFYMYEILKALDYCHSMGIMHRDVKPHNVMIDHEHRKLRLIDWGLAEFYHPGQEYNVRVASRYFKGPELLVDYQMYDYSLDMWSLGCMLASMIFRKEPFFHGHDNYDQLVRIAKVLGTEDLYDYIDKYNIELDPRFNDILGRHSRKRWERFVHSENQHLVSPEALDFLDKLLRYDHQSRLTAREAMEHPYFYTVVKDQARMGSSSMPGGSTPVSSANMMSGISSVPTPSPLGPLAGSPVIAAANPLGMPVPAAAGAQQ

For AAUAAA, the Kd in series [1] turned out to be 1030 nM; in series [2], 4390 nM; in series [3] it was 78.6 nM; in series [4] it was 2640 nM.

Turning to CUGUCCU, the values for the Kd in series [5], in series [6] and in series [7] were 76.1 nM, 80.4 nM and 42.6 nM, respectively.

Regarding UAUUUAU, the Kd in series [8] was determined as 523 nM.
